We go through ten molecules from patent US20220177583A1 (University of California, published 2022).

In experiment [1] the target is T1, human CLDN6, endogenously expressed on cancer cell lines (human, UniProt P56747 1-220).
T1 construct: also called Endogenous CLDN6+; CLDN6 on ARK2, OVCA429, UMUC4 cells
T1 sequence: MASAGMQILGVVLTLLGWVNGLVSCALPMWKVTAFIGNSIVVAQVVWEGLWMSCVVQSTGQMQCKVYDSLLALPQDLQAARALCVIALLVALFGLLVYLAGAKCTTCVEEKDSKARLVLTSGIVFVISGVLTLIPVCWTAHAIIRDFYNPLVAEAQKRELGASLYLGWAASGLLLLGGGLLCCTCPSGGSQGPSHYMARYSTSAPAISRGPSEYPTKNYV
Nature of the experiment: FACS dose curve, labelled mAb, OVCA429 cells.

Experiment [2] addresses T2, CLDN9-GFP expressed on engineered HEK293T cells (human, UniProt O95484 1-217).
T2 construct: whole, on cells; also called HEK293T CLDN9-mGFP; Artificial CLDN9+; not shown: GFP tag
T2 sequence (looked up): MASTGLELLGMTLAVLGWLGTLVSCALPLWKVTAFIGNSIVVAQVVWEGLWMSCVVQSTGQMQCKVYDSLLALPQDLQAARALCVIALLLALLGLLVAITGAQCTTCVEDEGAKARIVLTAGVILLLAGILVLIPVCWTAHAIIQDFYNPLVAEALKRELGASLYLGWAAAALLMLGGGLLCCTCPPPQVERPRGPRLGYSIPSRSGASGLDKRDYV
Nature of the experiment: FACS dose curve, labelled mAb, HEK293T CLDN9-mGFP cells.

In experiment [3] the target is T1, human CLDN6, endogenously expressed on …. The experiment can be described thus: FACS dose curve, labelled mAb, ARK2 cells.
Experiment [4] addresses T3, CLDN4-GFP expressed on engineered HEK293T cells (human, UniProt O14493 1-209).
T3 construct: whole, on cells; also called HEK293T CLDN4-mGFP; Artificial CLDN4+; not shown: GFP tag
T3 sequence (looked up): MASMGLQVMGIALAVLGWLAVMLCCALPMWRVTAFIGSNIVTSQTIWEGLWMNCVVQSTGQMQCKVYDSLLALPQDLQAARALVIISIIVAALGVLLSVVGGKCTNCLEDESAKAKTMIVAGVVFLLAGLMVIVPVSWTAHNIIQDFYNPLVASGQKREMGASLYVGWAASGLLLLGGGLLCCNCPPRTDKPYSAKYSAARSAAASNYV
The experiment can be described thus: FACS dose curve, labelled mAb, HEK293T CLDN4-mGFP cells.

Experiment [5] deals with T4, mouse CLDN6 fused to GFP, expressed on engineered HEK293T cells (mouse, UniProt Q9Z262 1-219).
T4 construct: whole, on cells; also called HEK293T-CLDN6-mGFP Artificial CLDN6+ (mouse); murine CLDN6; not shown: GFP tag
T4 sequence (looked up): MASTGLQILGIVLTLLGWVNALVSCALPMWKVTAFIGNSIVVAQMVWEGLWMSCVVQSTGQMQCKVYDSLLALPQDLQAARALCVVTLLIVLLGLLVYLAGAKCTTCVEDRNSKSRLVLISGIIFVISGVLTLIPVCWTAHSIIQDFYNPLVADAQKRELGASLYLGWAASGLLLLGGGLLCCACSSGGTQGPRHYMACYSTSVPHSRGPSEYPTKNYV
Nature of the experiment: FACS dose curve, labelled mAb, HEK293T-CLDN6-mGFP (mouse) cells.

As a reminder, the EC50 is the concentration at which the effect is half-maximal.

B1: AB12 (antibody, V domains shown)
VH: EVKLMESGGDLVKPGGSLKLSCAASGFTFSSYAMSWVRQTPEKRLEWVASIRSGGTTYYPDSVKGRFTISRDNARNILYLRMSSLRSEDTAIYYCAKVGGNPYPMDYWGQGTSVTVSS
VL: DIQMIQSPSSMFASLGDRVSLSCRASQDIGGNLDWYQQKPGGTIKLLIYSTSNLNSGVPSRFSGSGSGSDYSLTITSLESEDFADYYCLQRNAYPLTFGAGTKLELK
notes: Full-length IgG (ExpiCHO)
For B1, the concentration giving a half-maximal response (EC50) in experiment [1] is 2290 nM; in experiment [2] it was 2470 nM; in experiment [3], 1300 nM; in experiment [4] it was 2090 nM.

B2: AB1 (antibody, V domains shown)
VH: QVQLQQSAAELARPGASVKMSCKASGYTFTTYTMHWVKQRPGQGLEWIGFINPSSGYTDYNQKFKDRTTLTADKSSSTVYMQLSSLTSEDSAVYYCANGDYYVAYWGQGTLVTVSA
VL: QIVLTQSPAIMSASLGERVTMTCTASSSVSSTYFHWYQQKPGSSPKLWIYSTSNLASGVPRRFSGSASGTSYSLTISSMEAEDAATYYCHQYHRSPLTFGAGTKLELK
notes: Full-length IgG (ExpiCHO)
As to B2, the EC50 in experiment [5] was determined as 72 nM; in experiment [1] it was 84 nM; in experiment [2], 2760 nM; in experiment [3] it was 105 nM.

B3: AB7 (antibody, V domains shown)
VH: EVQLQQSGPELVKPGASMKISCKASGYSFTGYTMNWVKQSHGKNLEWIGLINPYNGGTNYNQKFKGKATLTVDKSSSTAYMELLSLTSEDSAVYYCARGVYDYDGFTYWGQGTLVTVSA
VL: QIVLTQSPAIMSASLGDRVTMTCTASSSVSSSYLHWYQQKPGSSPKLWIYSTSNLASGVPARFSGSGSGTSYSLTISSMEAEDAATYYCHQYHRSPPTFGSGTKLEIK
notes: Full-length IgG (ExpiCHO)
In the case of B3, the EC50 in experiment [5] stood at 1550 nM; in experiment [1], 531 nM; in experiment [2], 1940 nM; in experiment [3], 353 nM; in experiment [4] it was 2090 nM.

B4: AB4 (antibody, V domains shown)
VH: QVQLQQSGAELARPGASVKMSCKASGYTFTSYTMHWIKQRPGQGQEWIGYINPSSTYTHYIKKFKDKATLTADKSSSTAYMQLRSLTSEDSAVYYCSRGELGGFAYWGQGTLVTVSA
VL: DVVMTQTPLSLPVSLGDQASISCRSSQSLVHSDGNTYLNWYLQKPGQSPKLLIYKVSNRFSGVPDRFSGSGSGTDFTLKIRRVEAEDLGVYFCSQSTHVPYTFGGGTKLEIK
notes: Full-length IgG (ExpiCHO)
Consider B4, for which the EC50 in experiment [5] is at least 5000 nM; in experiment [1], 168 nM; in experiment [2], 1860 nM; in experiment [3] it was 48 nM.

B5: AB10 (antibody, V domains shown)
VH: QIQLVQSGPALKKPGETVKISCKASGYTFTDYSMHWIKQAPGKGLKWMGWISTETGEPTYADGFKGRFDFSLETSADTAYLSINNLTNEDTATYFCTRGLWSSFAYWGQGTLVTVSA
VL: DVVMTQTPLSLPVSLGDQASISCRASQSLVHSNGNTYLHWFLQKPGQSPKLLIYKVSNRFSGVPDRFSGSGSRTDFTLKISRVEAEDLGVYFCSQITHVPYTFGGGTKLEIK
notes: Full-length IgG (ExpiCHO)
In the case of B5, the results for the EC50 in experiment [1], in experiment [2] and in experiment [3] were 2470 nM, 246 nM and 2140 nM, respectively.

B6: AB8 (antibody, V domains shown)
VH: QVQLQQSGAELARPGASVKMSCKASGYTFTTYTMHWLKQRPGQGLEWIGYINPRSGYSNYNQKFKDKATLTADKSSNTAYMQLNTLTSEDSKVYYCSRGELGGFAYWGQGTLVTVSA
VL: DVVMTQTPLSLPVSLGDQASISCRSSQSLVHSDGNTYLYWYLQKPGQSPKLLIYKVSNRFSGVPDRFSGSGSGTDFTLKISRVEAEDLGVYFCSQSTHVPYTFGGGTKLEIK
notes: Full-length IgG (ExpiCHO)
As for B6, the EC50 in experiment [5] was at least 5000 nM; in experiment [1], 1090 nM; in experiment [2] it was 2770 nM; in experiment [3], 1140 nM; in experiment [4], at least 5000 nM.

B7: AB11 (antibody, V domains shown)
VH: DVQLVESGGGLVQPRGSRKLSCAASGFTFSSFGMHWVRQAPEKGLEWVAYISSDSRTIYYADTVKGRFTISRDNPTNTLFLQMTSLRSEDTAMYYCARDYGRTYEAYWGQGTLVTVSA
VL: DIVLTQSPASLAVSLGQRATISCRASKSVSTSGYSYIHWYQQKPGQPPKLLIYLASNLESGVPARFSGSGSGTDFTLNIHPVEEEDAATYYCQHSRELPLTFGAGTKLELK
notes: Full-length IgG (ExpiCHO)
Consider B7, for which the EC50 was found to be 2380 nM in experiment [5], 835 nM in experiment [1], 363 nM in experiment [3] and 2240 nM in experiment [4].

B8: AB15 (antibody, V domains shown)
VH: DVQLVESGGGLVQPRGSRKLSCAASGFTFSSFGMHWVRQAPEKGLEWVAYISSDSRTIYYADTVKGRFTISRDNPTNTLFLQMTSLRSEDTAMYYCARDYGRTYEAYWGQGTLVTVSA
VL: NIMMTQSPSSLAVSAGEKVTMSCKSSQSVLFSSNQKNYLAWYQQKPGQSPRLLIYWASTRESGVPDRFTGSGSGTDFTLTISNVQAEDLAVYYCHQYLSSRTFGAGTKLELK
notes: Full-length IgG (ExpiCHO)
For the molecule B8, the EC50 in experiment [5] and in experiment [4] was at least 5000 nM each time.

B9: AB5 (antibody, V domains shown)
VH: EVQLQQSGPELVKPGASVKMSCKASGYIFTHYIMHWVKQKPGQGLEWIGCINPYNDGTKYNEKFKGKATLTSDKSSSTAYMELSSLTSEDSAVYYCARYYGYPYYSMDYWGQGTSVTVSS
VL: DVLMTQTPLSLPVSLGDQPSISCRSSQSIVHSNGNTYLDWYLQKPGQSPKLLIYKVSNRFSGVPDRFSGSGSGTDFTLKISRVEAEDLGVYYCFQGSHVPFTFGSGTRLEIK
notes: Full-length IgG (ExpiCHO)
As to B9, the EC50 in experiment [5] stood at 11 nM; in experiment [1], 5 nM; in experiment [2] it was 25 nM; in experiment [3], 8 nM.

B10: AB6 (antibody, V domains shown)
VH: DVQLQESGPGLVKSSQSLSLTCSVTGYSITSGYYWKWIRQFPGNKLEWMGYISYDGGINYNPSLKNRISITRDTSKNQFFLKLNSVTTEDTAKYYCARFGKGAMDYWGQGTSVTVSS
VL: AIVMFQSPSSLVVSAGEKVTMSCKSSQSLLNSRTRKNYLAWYQQKPGQSPKLLIYWASTRESGVPDRFTGSGSGTDFTLTISSVQAEDLAVYYCKQSYYLYTFGGGTKLEIK
notes: Full-length IgG (ExpiCHO)
Regarding B10, the EC50 turned out to be 2220 nM in experiment [5]; 394 nM in experiment [1]; 2770 nM in experiment [2]; 765 nM in experiment [3]; 26 nM in experiment [4].
